Experiment: yeast display, Sf9 membrane polyspecificity reagent, FACS + sequencing; frameworks hold sequencing errors
How it was run: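 A nanobody's polyreactivity label depends on the gate it was sorted from. Yeast display cells were stained with 10% biotinylated, detergent-solubilized Sf9 membrane reagent for 1 hour at 4 °C, enriched on streptavidin microbeads and sorted by FACS. The low and high (top ~1%) gates were set on anti-HA fluorescence for expression and streptavidin fluorescence for reagent binding.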

Row | Sequence | polyreactivity (PSR sort gate)
1 | QVQLVESGGGLVQAGGSLRLSSDDSGFTFVSNAMGWYRQAPGKEMELVAVISSGGSTTYADSVKGRFTISRDNAKNTVYLQMNSLKPEDTAVYYCATTNYQDSYEGGDYWGQGTQVTVSS | low polyreactivity
2 | QVQLVESGGGLVQAGGSLRLSSSACGSTFYKNAMGWDRQAPGKERELVAGISRRGGRTYYADSLKGRFTISRDNANNTVYLQMNSLKPVDTADYYCNTGHEEDEYDYWGQGTQVTVSS | low polyreactivity
3 | QVQLVESGGGLVQAGGSLRLSSTASGSTIVAYAMGWYRQAPGKERELVAAITSSGGRTYYADSVKGRFTISRDNAKNSVYLQMNSLKPEDTAVYYCAAVTHGRYDWGQGTQVTVSS | high polyreactivity
4 | QVQLVESGGGLVQAGGSLRLSWAASGFIFAYYAMGWYTPAPGKERELVAAISKRGGSTYYADSVKGRFTISRDNAKNTVYLQMNSLKPEDTAVYYCAADGHGGYGYWGQGTQVTVSS | high polyreactivity
5 | QVQLVESGGGLVQAGGSLRLSWAASGFIFVSNAMGWYRQAPGKERELVAAITSGDNTKYADSVKGRFTISRDNAKNTVYLQMNSLKPEDTAVYYCAVTNRYQGAGYYWGQGTQVTVSS | low polyreactivity
6 | QVQLVESGGGLVQAGGSLRLSWAASGFTFRRNAMGWYRQAPGKEREFVAAITRSGGSTYYADSVKGRFTISRDNAKNTVYVHMNSLKPEDTAVYYCAKERPTDRYPSDEYWGQGTQVTVSS | high polyreactivity
7 | QVQLVESGGGLVQAGGSLRLSWAASGITFATKAMGWYRQAPGKERELVAGITSGGSTYYADSVKGRFTISRDNAKNTVYLQMNSLQPEDTAVYYCANRYHYWYGTGYDYWGQGTQVTVSS | low polyreactivity
8 | QVQLVESGGGLVQAGGSLRLSWAASGITFSRNAMGWYRQAPGKESELVATITSGGSTNYADSVKGRFTISRDHAKNTVYLQMNSLKPEDTAVYYCNAVWNNFISGRSYDYWGQGTQVTVSS | low polyreactivity
9 | QVQLVESGGGLVQAGGSLRLSWAASGLIFVYNDMGWYRQAPGKEMELVAAIRWSSGRTYYADSVKGRFTISRDNAKNTVYLQMNSLKPEDTAVYYCAAKGVGPERGGYDYWGQGTQVTVSS | high polyreactivity
10 | QVQLVESGGGLVQAGGSLRLSWAASGRILSANAMGWYRQAPGKERELVAAITYSGDNTYYADSVKGRFTISRDNAKNTVDVQMNSLKPEDTAVYYCAAVRYYAYLSSWRYDYWGQGTQVTVSS | low polyreactivity
11 | QVQLVESGGGLVQAGGSLRLSWAASGRTLWYYTMGWYRQAPGKERELLAGITVSGGSTYYADSVKGRFTISRDNAKNTVYLQMNSLKPEDTAVYYCADGYYSTWKQASRYRYYYWGQGTQVTVSS | high polyreactivity
12 | QVQLVESGGGLVQAGGSLRLSWAASGSIFGNAMGWYRQAPGKEREFVAAISSSGSSTYYADSVKGRFTISRDNAKNTVYLQMNSLKPEDTAVYYCAKRRRSAAPKYDYWGQGTHVTVSS | high polyreactivity
13 | QVQLVESGGGLVQAGGSLRLSWAASGSIFKYYAMGWYRQAPGKDRELVADISRSGGRTYYADSVKGRFTISRDNAKNTVFLQMNSLKPEDTAVYYCAKRYSRGSQDDYWGQGTQVTVSS | high polyreactivity
14 | QVQLVESGGGLVQAGGSLRLSWAASGSIFRSYAMGWYRQAPGKEREFVAAIPNSSGRTYYADSVKGRFTISRDNAKNTVYLQMNSLKPEDTAVYYCAARLPRTYQGGKLYRLQYSWGQGTQVTVSS | high polyreactivity
15 | QVQLVESGGGLVQAGGSLRLSWAASGSIFVHNTMGWYRQAPGKERELVAAITRSVGRTYFADSVKGRFTISRDNAKNTVYLQMTSLQPADTAVYYCAKPASKGYYWGQGTQVTVSS | high polyreactivity
16 | QVQLVESGGGLVQAGGSLRLSWAASGSTFDSNGMGRYRQAPGKERELVATITSRGASTNYSDSVKGRFTISRDNAKNTVYLEMNSLKPEDTAVYYCNREVPWWLYKYVGHDYWGQGTQVTVSS | low polyreactivity
17 | QVQLVESGGGLVQAGGSLRLSWAASGSTFDYYAMGWYRQAPGKERELVAAIRWSDGSTYYADSVKGRFTISRDNAKNTVYLQMNSLKPEDTAVYYCAADALYWIGRMDYWGQGTQVTVSS | low polyreactivity

Source: the nanobody polyreactivity screen of Harvey et al. (2022)
